Experiments:
[1] = target: T1, recombinant PD-L1 protein (mPD-L1-His) (mouse, UniProt Q9EP73 19-238); experiment: ELISA; mPD1-Fc-NKG2a coated in rising amounts, detection mPD-L1-His, Anti-His-6x-HRP
T1 construct: not shown: His tag
Method: Programmed death-ligand 1 (PD-L1) is a PD-1 ligand. To understand whether the PD-1 parts of the PD-1-Fc-NKG2A chimeric protein can bind PD-L1, ELISA-based assays were performed. […] The chimeric protein bound to the recombinant PD-L1 protein was detected using an anti-His-6× HRP.

[2] = target: T2, anti-mFc IgG antibody (plate-bound); experiment: ELISA: coat Anti-mFc (IgG) Jax #115-006-008, detection Anti-mFc (H+L) HRP
T2 construct: also called anti-Fc antibody
Method: To understand whether the Fc linkers from the native chimeric proteins can be accessed by anti-mouse Fc antibodies, ELISA-based assays were performed. For these assays, an anti-mFc IgG antibody was coated on plates and increasing amounts of the mPD-1-Fc-NKG2A and mSLAMF6-Fc-NKG2a chimeric proteins were added to the plates for capture by the plate-bound anti-mFc IgG antibody. The binding of the mPD-1-Fc-NKG2A and mSLAMF6-Fc-NKG2a chimeric proteins bound to the anti-mFc IgG antibody were detected using an anti-mFc HRP. An IgG antibody mouse Fc was used to generate a standard curve. mFc IgG was used as a positive control.

[3] = target: T3, recombinant mouse PD-L1-Fc (rmPD-L1-Fc) (mouse, UniProt Q9EP73 19-238); experiment: dual ELISA; coat mPDL1-Fc, mPD1-Fc-NKG2a titrated, detection HLA-E-His, Anti-His-6x-HRP; the signal needs both bindings
T3 construct: also called rPD-L1-Fc; not shown: Fc
Method: Increasing amounts of the mPD-1-Fc-NKG2A chimeric protein was added and detected using HLA-E-His. A chimeric protein comprising ECD of a type II transmembrane protein other than NKG2A was used as a negative control.
(§1) To understand whether the PD-1-Fc-NKG2A chimeric protein can binds simultaneously to both PD-L1 and HLA-E, the following ELISA experiment was carried out. Briefly, and recombinant PD-L1 (rPD-L1-Fc) protein was coated on plates. Increasing amounts of the PD-1-Fc-NKG2A chimeric protein was added to the plates for capture by the rPD-L1-Fc protein. Further, recombinant HLA-E (HLA-E-His) protein was added to the plate for capture by PD-1-Fc-NKG2A chimeric protein. The binding of the HLA-E-His protein was detected using an anti-His 6× HRP antibody.

[4] = target: T4, anti-human IgG antibody (plate-bound); experiment: Fc ELISA: coat Anti-hFc (Jax), detect Anti-hFc-HRP (Jax)
T4 construct: also called anti-human Fc antibody

[5] = target: T5, hPD-L1 expressed on CHO-K1/hPD-L1 cells (human, UniProt Q9NZQ7 19-290); experiment: flow cytometry cell binding assay, CHO-K1-Luc cells, detection Anti-hARC-PE
T5 construct: whole, on cells

[6] = target: T6, recombinant HLA-E-His protein (human, UniProt P13747 22-305, limits assumed); experiment: ELISA (single-sided): coat hHLA-E-His (Novus), detect Anti-hFc (JAX); curve rises to about 0.4 at the highest concentration, no plateau
T6 construct: also called recombinant HLA-E (HLA-E-His); not shown: His tag
Source text: As shown in FIG. 9C and FIG. 9D, binding of the hNKG2A domain of the hPD-1-Fc-hNKG2A chimeric protein was characterized by capturing to, respectively, a plate-bound HLA-E. In FIG. 9C, the hPD-1-Fc-hNKG2A chimeric protein was detected using an anti-human PD-1 antibody in conjunction with an HRP conjugated anti-mouse Fc antibody. In FIG. […]

[7] = target: T7, PD-L1, plate-bound (Example 8) (Homo sapiens (Human), UniProt Q9NZQ7 19-238); experiment: Dual ELISA (capturing with PDL1): coat hPDL1-Fc (R&D), detect hHLA-E (Novus), HRP Anti-6X His
T7 construct: not shown: The Fc carrier of the vendor's hPD-L1-Fc (R&D) and any linker

[8] = target: T8, recombinant hPD-L1 (hPD-L1-Fc) protein (human, UniProt Q9NZQ7 19-239); experiment: dual ELISA; coat hPDL1-Fc, hPD1-fc-NKG2a titrated, detection HLA-E-His, Anti-His-6x-HRP; the signal needs both bindings
T8 construct: not shown: Fc
Method: as §1, with “hPD-1-Fc-NKG2A” for “PD-1-Fc-NKG2A”, “hPD-L1” for “PD-L1”, “hPD-L1 (hPD-L1-Fc)” for “PD-L1 (rPD-L1-Fc)”, “hPD-L1-Fc” for “rPD-L1-Fc”

[9] = target: T6, recombinant HLA-E-His protein; experiment: Dual binding ELISA (capturing with HLA-E): coat hHLA-E-His (Novus), detect Anti-hPD1 (Sino), HRP Anti-mFc-HRP
Source text: As shown in FIG. 9C and FIG. 9D, binding of the hNKG2A domain of the hPD-1-Fc-hNKG2A chimeric protein was characterized by capturing to, respectively, a plate-bound HLA-E. In FIG. 9C, the hPD-1-Fc-hNKG2A chimeric protein was detected using an anti-human PD-1 antibody in conjunction with an HRP conjugated anti-mouse Fc antibody. In FIG. 9D, the hPD-1-Fc-hNKG2A chimeric protein was directly detected via an HRP conjugated anti-mouse Fc antibody.

[10] = target: T9, recombinant human CD28-Fc (rhCD28-Fc) protein (human, UniProt P10747 19-152); experiment: dual ELISA; coat rhCD28-Fc, hCD80-fc-NKG2a titrated, detection HLA-E-His, Anti 6x-His-HRP; the signal needs both bindings
T9 construct: not shown: Fc
Method: as §1, with “hCD80-Fc-NKG2A” for “PD-1-Fc-NKG2A”, “hCD28” for “PD-L1”, “hCD28 (rhCD28-Fc)” for “PD-L1 (rPD-L1-Fc)”, “recombinant human CD28-Fc (rhCD28-Fc)” for “rPD-L1-Fc”

[11] = target: T6, recombinant HLA-E-His protein; experiment: ELISA: the chimeric protein is the titrated coat (1:3), detection HLA-E-His (Novus NBP2-47435PEP), HRP Anti-6x-His-HRP
Method: In a complementary experiment, increasing amounts of the hCD48-Fc-NKG2A, hCD58-Fc-NKG2A, and hCD80-Fc-NKG2A chimeric proteins or a negative control protein was coated on plates. Recombinant HLA-E-His protein was added to the plates for capture by the plate-bound chimeric proteins or the negative control protein. The captured HLA-E-His protein was detected using an anti-6×-His-HRP antibody.

[12] = target: T10, recombinant human CD28-His (rhCD28-His) (human, UniProt P10747 19-152); experiment: ELISA: coat rhCD28-His (Acro), detection Anti-hFc-HRP
T10 construct: also called Human CD28-His protein; recombinant CD28 protein; not shown: His tag
Method: To understand whether the CD80 and CD86 parts of the hCD80-Fc-NKG2A and hCD86-Fc-NKG2A chimeric protein can bind CD28, ELISA-based assays were performed. Briefly, recombinant CD28 protein was coated on plates and increasing amounts of the hCD80-Fc-NKG2A, hCD86-Fc-NKG2A, and mCD48-Fc-NKG2A chimeric proteins, and recombinant human CD86-Fc (rhCD86-Fc) protein was added to the plates for capture by the plate-bound recombinant CD28 protein. The mCD48-Fc-NKG2A chimeric protein, and recombinant human CDrhCD86-Fc protein was used as negative and positive controls, respectively. The chimeric proteins bound to the recombinant CD28 protein was detected using an anti-human Fc HRP.

T6 sequence (P13747 22-305 limits assumed): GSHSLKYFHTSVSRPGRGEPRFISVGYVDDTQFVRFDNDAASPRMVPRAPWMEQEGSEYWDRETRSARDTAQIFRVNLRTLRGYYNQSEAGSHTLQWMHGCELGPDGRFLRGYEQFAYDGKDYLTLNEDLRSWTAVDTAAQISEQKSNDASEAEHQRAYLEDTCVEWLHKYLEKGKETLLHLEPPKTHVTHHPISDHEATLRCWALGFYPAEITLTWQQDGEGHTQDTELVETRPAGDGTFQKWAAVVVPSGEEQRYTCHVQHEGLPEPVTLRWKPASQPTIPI
T7 sequence (Q9NZQ7 19-238 limits assumed): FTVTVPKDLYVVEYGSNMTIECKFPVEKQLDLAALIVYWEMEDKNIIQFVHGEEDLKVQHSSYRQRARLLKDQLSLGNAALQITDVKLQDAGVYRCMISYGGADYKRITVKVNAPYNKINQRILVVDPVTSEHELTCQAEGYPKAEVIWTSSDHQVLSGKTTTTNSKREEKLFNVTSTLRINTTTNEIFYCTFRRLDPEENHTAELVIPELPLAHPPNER
T3 sequence (Q9EP73 19-238 limits assumed): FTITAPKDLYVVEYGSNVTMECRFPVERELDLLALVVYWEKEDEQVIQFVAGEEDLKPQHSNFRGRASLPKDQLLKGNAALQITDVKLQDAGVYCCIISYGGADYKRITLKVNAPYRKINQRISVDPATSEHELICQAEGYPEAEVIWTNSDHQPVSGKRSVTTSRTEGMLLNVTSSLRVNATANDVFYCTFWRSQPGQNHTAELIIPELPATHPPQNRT
T1 sequence (Q9EP73 19-238 limits assumed): as above
T8 sequence (Q9NZQ7 19-239 limits assumed): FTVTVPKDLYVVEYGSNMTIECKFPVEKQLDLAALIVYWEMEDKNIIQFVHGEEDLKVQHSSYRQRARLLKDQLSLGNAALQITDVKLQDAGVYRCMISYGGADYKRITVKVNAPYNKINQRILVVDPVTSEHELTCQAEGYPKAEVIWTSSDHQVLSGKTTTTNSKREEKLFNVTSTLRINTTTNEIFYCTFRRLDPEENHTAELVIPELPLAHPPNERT
T5 sequence (Q9NZQ7 19-290): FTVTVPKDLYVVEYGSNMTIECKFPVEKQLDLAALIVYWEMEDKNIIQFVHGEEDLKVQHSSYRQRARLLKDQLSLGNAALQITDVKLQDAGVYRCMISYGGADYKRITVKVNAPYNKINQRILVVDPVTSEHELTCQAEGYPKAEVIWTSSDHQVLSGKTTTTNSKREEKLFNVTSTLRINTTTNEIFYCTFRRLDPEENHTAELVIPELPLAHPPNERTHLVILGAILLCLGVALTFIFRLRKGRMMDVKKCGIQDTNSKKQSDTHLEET
T10 sequence (P10747 19-152 limits assumed): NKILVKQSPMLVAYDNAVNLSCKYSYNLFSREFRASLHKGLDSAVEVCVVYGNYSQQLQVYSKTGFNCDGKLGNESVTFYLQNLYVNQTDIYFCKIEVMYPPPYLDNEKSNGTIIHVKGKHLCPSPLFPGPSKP
T9 sequence (P10747 19-152 limits assumed): as above

B1: mouse PD-1-Fc-NKG2A chimeric protein (Fc fusion)
chain: SGWLLEVPNGPWRSLTFYPAWLTVSEGANATFTCSLSNWSEDLMLNWNRLSPSNQTEKQAAFCNGLSQPVQDARFQIIQLPNRHDFHMNILDTRRNDSGIYLCGAISLHPKAKIEESPGAELVVTERILETSTRYPSPSPKPEGRFQGMVPRDCGCKPCICTVPEVSSVFIFPPKPKDVLTITLTPKVTCVVVDISKDDPEVQFSWFVDDVEVHTAQTQPREEQFNSTFRSVSELPIMHQDWLNGKEFKCRVNSAAFPAPIEKTISKTKGRPKAPQVYTIPPPKEQMAKDKVSLTCMITDFFPEDITVEWQWNGQPAENYKNTQPIMDTDGSYFVYSKLNVQKSNWEAGNTFTCSVLHEGLHNHHTEKSLSHSPGIIEGRMDTPYTEAKAQINSSMTRTHRDINYTLSSAQPCPHCPKEWISYSHNCYFIGMERKSWNDSLVSCISKNCSLLYIDSEEEQDFLQSLSLISWTGILRKGRGQPWVWKEDSIFKPKIAEILHDECNCAMMSASGLTADNCTTLHPYLCKCKFPI
notes: also called mPD-1-Fc-NKG2A; mPD1-Fc-NKG2A
[1]
  EC50 (read off the curve): ~20 µg/mL
[2]
  EC50 (read off the curve): ~0.08 µg/mL
[3]
  EC50 (read off the curve): ~40 µg/mL

B2: human PD-1-Fc-hNKG2A chimeric protein (Fc fusion)
chain: not shown
notes: the Fc of the tested construct is therefore uncertain; also called hPD-1-Fc-hNKG2A; hPD-1-Fc-NKG2A
[4]
  EC50: 0.00964 µM
[5]
  EC50 (read off the curve): ~1 µg/mL
[6]
  EC50: ~24200 µM
[7]
  EC50: 0.0256 µM
[8]
  EC50 (read off the curve): ~20 µg/mL
[9]
  EC50: ~0.175 µM

B3: human CD80-Fc-NKG2A chimeric protein (Fc fusion)
chain: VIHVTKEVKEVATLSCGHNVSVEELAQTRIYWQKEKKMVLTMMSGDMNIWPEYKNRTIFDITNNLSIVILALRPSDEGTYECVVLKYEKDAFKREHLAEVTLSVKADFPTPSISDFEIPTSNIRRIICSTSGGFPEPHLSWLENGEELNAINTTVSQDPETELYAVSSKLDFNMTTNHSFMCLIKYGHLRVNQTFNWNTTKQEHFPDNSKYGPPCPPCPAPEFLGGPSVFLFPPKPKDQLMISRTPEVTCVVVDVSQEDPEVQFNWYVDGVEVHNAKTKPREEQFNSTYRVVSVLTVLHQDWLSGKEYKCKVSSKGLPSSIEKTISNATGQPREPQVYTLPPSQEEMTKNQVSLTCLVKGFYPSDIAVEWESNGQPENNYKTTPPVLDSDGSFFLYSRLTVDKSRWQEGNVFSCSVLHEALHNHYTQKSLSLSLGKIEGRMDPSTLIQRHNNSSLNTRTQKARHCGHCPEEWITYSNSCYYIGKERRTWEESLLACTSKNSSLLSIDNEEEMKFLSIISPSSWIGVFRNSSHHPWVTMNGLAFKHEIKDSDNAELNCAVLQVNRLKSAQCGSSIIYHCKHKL
notes: also called hCD80-Fc-NKG2A
[10]
  binding result: binds
[11]
  EC50 (read off the curve): ~0.9 µg/mL
[12]
  binding result: binds

— patent US20200399344A1 (SHATTUCK LABS, published 2020)
